According to paper PMC4165486 (Vaccine, 2011):

What was measured:
[1] = molecular target: the molecule itself; assay: AUC
[2] = molecular target: the molecule itself; assay: AUC; remark: listed apart in the source

B1: poly-epitope P181 (P90-DEG-P77-DEG-P27) (peptide)
chain: TKKLNKELSEGNKELEKLEKNIKELEETNNTLENDIKVEKLKKYNNEISSLKKELDILNEKMGKCTKKRNVEEELHSLRKNYNIINEEIEEIT
modifications: derivatized diethylene glycol (DEG) linker inserted between P90 and P77 and between P77 and P27
stoichiometry N [1]: 2
Kd [2]: 115 µM
